{
  "source": "paper PMC9165289",
  "about": "“Theranostic PSMA ligands with optimized backbones for intraoperative multimodal imaging and photodynamic therapy of prostate cancer” (European Journal of Nuclear Medicine and Molecular Imaging, 2022)",
  "key": {"[1]": {"assay": "PSMA-N064 blocking experiment, ex vivo biodistribution", "assay_type": "in vivo, BALB/c nude mice", "conditions": "male, BALB/c nude, mouse, in vivo, total radioactivity, 2 h p.i., n=5", "procedure": "All animal experiments were approved by the institutional Animal Welfare Committee of the Radboud University Medical Center and were conducted in accordance to the guidelines of the Revised Dutch Act on Animal Experimentation. Animal experiments were performed in 8–10 weeks old male BALB/c nude mice (Janvier). The mice were housed in individually ventilated cages (Blue line IVC, 3–5 mice per cage), under standard non-sterile conditions with cage enrichment present. There was free access to chlorophyll-free animal chow (Sniff Voer) and water. Mice were subcutaneously inoculated with 3.0 × 10^6 LS174T-PSMA cells in the right flank and 1.5 × 10^6 LS174T WT cells in the left flank (diluted in 200-µl RPMI 1640 medium). When xenografts were approximately 0.5 cm^3 (10–14 days after injection), mice were block-randomized into groups based on tumor size. The researchers were not blinded for the experimental groups.\nFive mice per group were intravenously injected with either 0.1 nmol PSMA-N064, 0.3 nmol PSMA-N064, 0.1 nmol PSMA-N064 + 10 nmol unlabeled PSMA-617 (100x excess) or PSMA-617. Ligands were labeled with 10 MBq ^111In in PBS+0.5% (w/v) BSA. For the ex vivo biodistribution four groups (one for each experimental condition) of five mice were included. Two hours p.i., all mice from all groups were euthanized by CO2/O2-asphyxiation and relevant tissues were dissected, weighed and measured for radioactivity in a gamma-counter (2480 WIZARD^2 Automatic Gamma Counter, PerkinElmer)."}, "PSMA": {"target": "T1, PSMA (Homo sapiens, UniProt Q04609)", "T1 construct": "expressed in transfected cells; host or cells: LS174T colon carcinoma cells (LS174T-PSMA)", "T1 sequence (Q04609 whole entry)": "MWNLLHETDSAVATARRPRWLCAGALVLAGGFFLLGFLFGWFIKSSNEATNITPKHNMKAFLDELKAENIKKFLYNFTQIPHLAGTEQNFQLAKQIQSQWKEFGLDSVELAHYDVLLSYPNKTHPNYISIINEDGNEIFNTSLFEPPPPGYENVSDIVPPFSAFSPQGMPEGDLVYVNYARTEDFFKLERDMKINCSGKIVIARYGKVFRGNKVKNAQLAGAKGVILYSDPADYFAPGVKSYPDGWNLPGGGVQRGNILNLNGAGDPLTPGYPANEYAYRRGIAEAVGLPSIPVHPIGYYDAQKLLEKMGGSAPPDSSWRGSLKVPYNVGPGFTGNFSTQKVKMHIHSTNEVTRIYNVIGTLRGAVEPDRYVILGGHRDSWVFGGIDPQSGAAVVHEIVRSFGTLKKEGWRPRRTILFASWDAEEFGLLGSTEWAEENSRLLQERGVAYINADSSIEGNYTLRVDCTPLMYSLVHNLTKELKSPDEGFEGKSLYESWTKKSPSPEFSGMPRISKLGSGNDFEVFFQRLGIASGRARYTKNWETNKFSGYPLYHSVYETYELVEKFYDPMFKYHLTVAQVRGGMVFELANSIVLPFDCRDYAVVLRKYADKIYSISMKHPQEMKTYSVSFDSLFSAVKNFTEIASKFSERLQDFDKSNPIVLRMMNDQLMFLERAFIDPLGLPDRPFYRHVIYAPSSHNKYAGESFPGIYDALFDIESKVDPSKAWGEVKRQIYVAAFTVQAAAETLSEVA", "assay": "competitive binding assay using LS174T-PSMA cells", "source_text": "Fig. 3 In vitro characterization of [^111In]In-DOTA(GA)-IRDye700DX-PSMA ligands varying in their backbone composition. a Labeling efficiency of [^111In]In-DOTA-PSMA-N01, -N02, -N03, [^111In]In-DOTAGA-PSMA-N064 and -N064inc at a specific activity of either 10 MBq/µg or 30 MBq/µg (n = 2). IC50 values of ligands as determined in competitive binding assays using LS174T-PSMA cells. b Binding and internalization of [^111In]In-DOTA-PSMA-N01, -N02, -N03, [^111In]In-DOTAGA-PSMA-N064 and -N064inc in LS174T PSMA-positive cells. Membrane binding and internalization are corrected for non-specific binding and accumulation, as determined by co-incubation with an excess of 2-PMPA (50 µg). [^111In]In-DOTA-PSMA-617 was added as a positive control. c PSMA-targeted PDT efficacy of ligands in vitro. Cell viability of LS174T-PSMA (PSMA +) and LS174T wildtype (PSMA-) cells following incubation with 30 nM of PSMA-N01, -N02, -N03, -N064, and -N064inc, after either a 100 J/cm^2 (450 mW/cm^2) radiant exposure or no light exposure (dark)."}},
  "note": "Values joined by “and” are separate entries in the source; they are usually repeats but may differ in a detail not shown here. Equal entries are not always repeated. Where two headings read alike, the source gives them in different places.",
  "data": [
    {"smiles": "C[Si](C)(CCC[N+](CCCS(=O)(=O)[O-])(CCCS(=O)(=O)O)CCCS(=O)(=O)O)O[Si]1(O[Si](C)(C)CCC[N+](CCCS(=O)(=O)[O-])(CCCS(=O)(=O)O)CCCS(=O)(=O)O)n2c3c4ccccc4c2N=C2N=C(N=c4c5c(OCCCOC(=O)NCCCCCC(=O)NCCCC[C@H](NC(=O)CCC(C(=O)O)N6CCN(CC(=O)O)CCN(CC(=O)O)CCN(CC(=O)O)CC6)C(=O)N[C@@H](Cc6ccccc6)C(=O)N[C@@H](CCC(=O)O)C(=O)N[C@@H](CCC(=O)O)C(=O)NCCCCCC(=O)NCCCC[C@H](NC(=O)N[C@@H](CCC(=O)O)C(=O)O)C(=O)O)cccc5c(n41)=NC1=NC(=N3)c3ccccc31)c1ccccc12", "note": "(stereo partly drawn) [PSMA-N064]", "values": [
      {"measurement": "tissue uptake at 2 h", "setting": "[1]; iv, 0.1 nmol, 0.1 nmol, 10 MBq, i.v., read-out: Biodistribution Blood", "result": "0.2 ± 0.2", "unit": "%ID/g"},
      {"measurement": "tissue uptake at 2 h", "setting": "[1]; iv, 0.1 nmol, 0.1 nmol, 10 MBq, i.v., read-out: Biodistribution Bone", "result": "0.7 ± 0.2", "unit": "%ID/g"},
      {"measurement": "tissue uptake at 2 h", "setting": "[1]; iv, 0.1 nmol, 0.1 nmol, 10 MBq, i.v., read-out: Biodistribution Kidney", "result": "82.9 ± 7.8", "unit": "%ID/g"},
      {"measurement": "tissue uptake at 2 h", "setting": "[1]; iv, 0.1 nmol, 0.1 nmol, 10 MBq, i.v., read-out: Biodistribution Liver", "result": "0.8 ± 0.1", "unit": "%ID/g"},
      {"measurement": "tissue uptake at 2 h", "setting": "[1]; iv, 0.1 nmol, 0.1 nmol, 10 MBq, i.v., read-out: Biodistribution Muscle", "result": "0.4 ± 0.4", "unit": "%ID/g"},
      {"measurement": "tissue uptake at 2 h", "setting": "[1]; iv, 0.1 nmol, 0.1 nmol, 10 MBq, i.v., read-out: Biodistribution Prostate", "result": "0.5 ± 0.2", "unit": "%ID/g"},
      {"measurement": "tissue uptake at 2 h", "setting": "[1]; iv, 0.1 nmol, 0.1 nmol, 10 MBq, i.v., read-out: Biodistribution Salivary glands", "result": "0.6 ± 0.1", "unit": "%ID/g"},
      {"measurement": "tissue uptake at 2 h", "setting": "[1]; iv, 0.1 nmol, 0.1 nmol, 10 MBq, i.v., read-out: Biodistribution Spleen", "result": "1.6 ± 0.4", "unit": "%ID/g"},
      {"measurement": "tissue uptake at 2 h", "setting": "[1]; iv, 0.1 nmol, 0.1 nmol, 10 MBq, i.v., read-out: Biodistribution Tumor+ LS174T-PSMA", "result": "12 ± 2", "unit": "%ID/g"},
      {"measurement": "tissue uptake at 2 h", "setting": "[1]; iv, 0.1 nmol, 0.1 nmol, 10 MBq, i.v., read-out: Biodistribution Tumor- LS174T", "result": "0.4 ± 0.1", "unit": "%ID/g"},
      {"measurement": "tissue uptake at 2 h", "setting": "[1]; iv, 0.3 nmol, 0.3 nmol, 10 MBq, i.v., read-out: Biodistribution Blood", "result": "0.4 ± 0.3", "unit": "%ID/g"},
      {"measurement": "tissue uptake at 2 h", "setting": "[1]; iv, 0.3 nmol, 0.3 nmol, 10 MBq, i.v., read-out: Biodistribution Bone", "result": "0.8 ± 0.1", "unit": "%ID/g"},
      {"measurement": "tissue uptake at 2 h", "setting": "[1]; iv, 0.3 nmol, 0.3 nmol, 10 MBq, i.v., read-out: Biodistribution Kidney", "result": "64.4 ± 9.7", "unit": "%ID/g"},
      {"measurement": "tissue uptake at 2 h", "setting": "[1]; iv, 0.3 nmol, 0.3 nmol, 10 MBq, i.v., read-out: Biodistribution Liver", "result": "1 ± 0.2", "unit": "%ID/g"},
      {"measurement": "tissue uptake at 2 h", "setting": "[1]; iv, 0.3 nmol, 0.3 nmol, 10 MBq, i.v., read-out: Biodistribution Muscle", "result": "0.5 ± 0.3", "unit": "%ID/g"},
      {"measurement": "tissue uptake at 2 h", "setting": "[1]; iv, 0.3 nmol, 0.3 nmol, 10 MBq, i.v., read-out: Biodistribution Prostate", "result": "0.6 ± 0.2", "unit": "%ID/g"},
      {"measurement": "tissue uptake at 2 h", "setting": "[1]; iv, 0.3 nmol, 0.3 nmol, 10 MBq, i.v., read-out: Biodistribution Salivary glands", "result": "0.6 ± 0.2", "unit": "%ID/g"},
      {"measurement": "tissue uptake at 2 h", "setting": "[1]; iv, 0.3 nmol, 0.3 nmol, 10 MBq, i.v., read-out: Biodistribution Spleen", "result": "1.9 ± 0.5", "unit": "%ID/g"},
      {"measurement": "tissue uptake at 2 h", "setting": "[1]; iv, 0.3 nmol, 0.3 nmol, 10 MBq, i.v., read-out: Biodistribution Tumor+ LS174T-PSMA", "result": "12.2 ± 1.1", "unit": "%ID/g"},
      {"measurement": "tissue uptake at 2 h", "setting": "[1]; iv, 0.3 nmol, 0.3 nmol, 10 MBq, i.v., read-out: Biodistribution Tumor- LS174T", "result": "0.5 ± 0.1", "unit": "%ID/g"},
      {"measurement": "tissue uptake at 2 h", "setting": "[1]; 0.1 nmol + 10 nmol unlabeled PSMA-617 (block, 100x excess), read-out: Biodistribution Blood", "result": "0.2 ± 0.1", "unit": "%ID/g"},
      {"measurement": "tissue uptake at 2 h", "setting": "[1]; 0.1 nmol + 10 nmol unlabeled PSMA-617 (block, 100x excess), read-out: Biodistribution Bone", "result": "0.4 ± 0.1", "unit": "%ID/g"},
      {"measurement": "tissue uptake at 2 h", "setting": "[1]; 0.1 nmol + 10 nmol unlabeled PSMA-617 (block, 100x excess), read-out: Biodistribution Kidney", "result": "39.5 ± 5", "unit": "%ID/g"},
      {"measurement": "tissue uptake at 2 h", "setting": "[1]; 0.1 nmol + 10 nmol unlabeled PSMA-617 (block, 100x excess), read-out: Biodistribution Liver", "result": "0.7 ± 0.2", "unit": "%ID/g"},
      {"measurement": "tissue uptake at 2 h", "setting": "[1]; 0.1 nmol + 10 nmol unlabeled PSMA-617 (block, 100x excess), read-out: Biodistribution Muscle", "result": "0.1 ± 0.1", "unit": "%ID/g"},
      {"measurement": "tissue uptake at 2 h", "setting": "[1]; 0.1 nmol + 10 nmol unlabeled PSMA-617 (block, 100x excess), read-out: Biodistribution Prostate", "result": "0.2 ± 0.1", "unit": "%ID/g"},
      {"measurement": "tissue uptake at 2 h", "setting": "[1]; 0.1 nmol + 10 nmol unlabeled PSMA-617 (block, 100x excess), read-out: Biodistribution Salivary glands", "result": "0.4 ± 0.1", "unit": "%ID/g"},
      {"measurement": "tissue uptake at 2 h", "setting": "[1]; 0.1 nmol + 10 nmol unlabeled PSMA-617 (block, 100x excess), read-out: Biodistribution Spleen", "result": "0.5 ± 0.1", "unit": "%ID/g"},
      {"measurement": "tissue uptake at 2 h", "setting": "[1]; 0.1 nmol + 10 nmol unlabeled PSMA-617 (block, 100x excess), read-out: Biodistribution Tumor+ LS174T-PSMA", "result": "1 ± 0.1", "unit": "%ID/g"},
      {"measurement": "tissue uptake at 2 h", "setting": "[1]; 0.1 nmol + 10 nmol unlabeled PSMA-617 (block, 100x excess), read-out: Biodistribution Tumor- LS174T", "result": "0.4 ± 0.2", "unit": "%ID/g"}
    ]},
    {"smiles": "C[Si](C)(CCC[N+](CCCS(=O)(=O)[O-])(CCCS(=O)(=O)O)CCCS(=O)(=O)O)O[Si]1(O[Si](C)(C)CCC[N+](CCCS(=O)(=O)[O-])(CCCS(=O)(=O)O)CCCS(=O)(=O)O)n2c3c4ccccc4c2N=C2N=C(N=c4c5c(OCCCOC(=O)NCCCCCC(=O)NCCCC[C@H](NC(=O)CN6CCN(CC(=O)O)CCN(CC(=O)O)CCN(CC(=O)O)CC6)C(=O)NCCCC[C@H](NC(=O)[C@H](CCC(=O)O)NC(=O)c6ccccc6)C(=O)NCc6ccc(C(=O)N[C@@H](Cc7ccc8ccccc8c7)C(=O)NCCCC[C@H](NC(=O)N[C@@H](CCC(=O)O)C(=O)O)C(=O)O)cc6)cccc5c(n41)=NC1=NC(=N3)c3ccccc31)c1ccccc12", "note": "[PSMA-N01]", "values": [
      {"measurement": "IC50", "setting": "PSMA", "result": "44.8 nM and < 50 nM"}
    ]},
    {"smiles": "C[Si](C)(CCC[N+](CCCS(=O)(=O)[O-])(CCCS(=O)(=O)O)CCCS(=O)(=O)O)O[Si]1(O[Si](C)(C)CCC[N+](CCCS(=O)(=O)[O-])(CCCS(=O)(=O)O)CCCS(=O)(=O)O)n2c3c4ccccc4c2N=C2N=C(N=c4c5c(OCCCOC(=O)NCCCCCC(=O)NCCCC[C@H](NC(=O)CN6CCN(CC(=O)O)CCN(CC(=O)O)CCN(CC(=O)O)CC6)C(=O)NCCCC[C@H](NC(=O)[C@H](CCC(=O)O)NC(=O)c6ccccc6)C(=O)NC[C@H]6CC[C@H](C(=O)N[C@@H](Cc7ccc8ccccc8c7)C(=O)NCCCC[C@H](NC(=O)N[C@@H](CCC(=O)O)C(=O)O)C(=O)O)CC6)cccc5c(n41)=NC1=NC(=N3)c3ccccc31)c1ccccc12", "note": "[PSMA-N03]", "values": [
      {"measurement": "IC50", "setting": "PSMA", "result": 41.8, "unit": "nM"},
      {"measurement": "IC50", "setting": "PSMA; listed as -N03", "result": "< 50", "unit": "nM"}
    ]}
  ]
}
